Results reported in PMC4655364, “HdeB chaperone activity is coupled to its intrinsic dynamic properties” (Scientific Reports, 2015).

Target: the molecule itself
Assay: NMR backbone 15N relaxation (R2/R1, model-free analysis); pH 7.0, 5.0, 4.5 and 4.0; 25 °C, 800 MHz; 50 mM sodium phosphate, 45 mM citric acid

B1: E. coli HdeB (natural protein, UniProt P0AET2 30-108, looked up)
chain: ANESAKDMTCQEFIDLNPKAMTPVAWWMLHEETVYKGGDTVTLNETDLTQIPKVIEYCKKNPQKNLYTFKNQASNDLPN
notes: HdeB, periplasmic acid-resistant chaperone of E. coli; 79 residues; numbers count on: the mature protein, with the signal peptide excluded; Expressed from pET-28a(+); It speaks of 79 residues and numbers them on the mature protein; Samples were 15N- or 13C/15N-labelled; Each monomer has a Cys10-Cys58 disulfide bridge; also called HdeB dimer; HdeB homo-dimer; source: E. coli BL21(DE3)-T1R, …
  stoichiometry N: 2
